Data reported in article PMC3039130 (Structure (London, England : 1993), 2011).

Biological target: T1, BirA-tagged, biotinylated mouse JAML ectodomain (Mus musculus, biotin on the BirA-tag (by BirA biotin protein ligase))
T1 chain: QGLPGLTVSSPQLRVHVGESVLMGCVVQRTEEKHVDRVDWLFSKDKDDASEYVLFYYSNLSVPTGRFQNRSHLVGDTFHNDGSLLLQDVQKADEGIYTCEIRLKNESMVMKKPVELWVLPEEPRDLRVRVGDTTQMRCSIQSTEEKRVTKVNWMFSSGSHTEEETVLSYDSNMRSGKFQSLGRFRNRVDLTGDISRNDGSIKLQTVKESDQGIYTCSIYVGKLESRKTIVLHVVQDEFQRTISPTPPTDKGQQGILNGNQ
Experiment: SPR

B1: HL4E10 Fab (fragment of the hamster anti-JAML IgG (λ) HL4E10) (Fab, V domains shown)
VH: QVQLKESGPGLLQPSQTLSLTCTVSGISLSDYGVHWVRQAPGKGLEWMGIIGHAGGTDYNSNLKSRVSISRDTSKSQVFLKLNSLQQEDTAMYFCARHFYTYFDVWGQGIQVTVSS
VL: SYTLTQPPLVSVALGQKATITCSGDKLSDVYVHWYQQKAGQAPVLVIYEDNRRPSGIPDHFSGSNSGNMATLTISKAQAGDEADYYCQSWDGTNSAWVFGSGTKVTVL
In the case of B1, the Kd is reported as about 8 nM and the koff is reported as about 0.001 s⁻¹.
